Target: HER3 (human (endogenous in LIM1215)) (UniProt P21860)
Experiment: Collaborative Enzyme Enhanced Reactive-immunoassay (CEER); proximity-mediated immunoassay in a multiplexed array format on LIM1215 cell lysates, done by Prometheus Laboratories; cells control-treated or treated 24h with cetuximab (50 ug/mL), lapatinib (1 uM), gefitinib, cetuximab + trastuzumab (20 ug/mL) or cetuximab + pertuzumab (10 ug/mL); read-out in computed units (CU)

Chain of UniProt P21860 (P21860 20-1342): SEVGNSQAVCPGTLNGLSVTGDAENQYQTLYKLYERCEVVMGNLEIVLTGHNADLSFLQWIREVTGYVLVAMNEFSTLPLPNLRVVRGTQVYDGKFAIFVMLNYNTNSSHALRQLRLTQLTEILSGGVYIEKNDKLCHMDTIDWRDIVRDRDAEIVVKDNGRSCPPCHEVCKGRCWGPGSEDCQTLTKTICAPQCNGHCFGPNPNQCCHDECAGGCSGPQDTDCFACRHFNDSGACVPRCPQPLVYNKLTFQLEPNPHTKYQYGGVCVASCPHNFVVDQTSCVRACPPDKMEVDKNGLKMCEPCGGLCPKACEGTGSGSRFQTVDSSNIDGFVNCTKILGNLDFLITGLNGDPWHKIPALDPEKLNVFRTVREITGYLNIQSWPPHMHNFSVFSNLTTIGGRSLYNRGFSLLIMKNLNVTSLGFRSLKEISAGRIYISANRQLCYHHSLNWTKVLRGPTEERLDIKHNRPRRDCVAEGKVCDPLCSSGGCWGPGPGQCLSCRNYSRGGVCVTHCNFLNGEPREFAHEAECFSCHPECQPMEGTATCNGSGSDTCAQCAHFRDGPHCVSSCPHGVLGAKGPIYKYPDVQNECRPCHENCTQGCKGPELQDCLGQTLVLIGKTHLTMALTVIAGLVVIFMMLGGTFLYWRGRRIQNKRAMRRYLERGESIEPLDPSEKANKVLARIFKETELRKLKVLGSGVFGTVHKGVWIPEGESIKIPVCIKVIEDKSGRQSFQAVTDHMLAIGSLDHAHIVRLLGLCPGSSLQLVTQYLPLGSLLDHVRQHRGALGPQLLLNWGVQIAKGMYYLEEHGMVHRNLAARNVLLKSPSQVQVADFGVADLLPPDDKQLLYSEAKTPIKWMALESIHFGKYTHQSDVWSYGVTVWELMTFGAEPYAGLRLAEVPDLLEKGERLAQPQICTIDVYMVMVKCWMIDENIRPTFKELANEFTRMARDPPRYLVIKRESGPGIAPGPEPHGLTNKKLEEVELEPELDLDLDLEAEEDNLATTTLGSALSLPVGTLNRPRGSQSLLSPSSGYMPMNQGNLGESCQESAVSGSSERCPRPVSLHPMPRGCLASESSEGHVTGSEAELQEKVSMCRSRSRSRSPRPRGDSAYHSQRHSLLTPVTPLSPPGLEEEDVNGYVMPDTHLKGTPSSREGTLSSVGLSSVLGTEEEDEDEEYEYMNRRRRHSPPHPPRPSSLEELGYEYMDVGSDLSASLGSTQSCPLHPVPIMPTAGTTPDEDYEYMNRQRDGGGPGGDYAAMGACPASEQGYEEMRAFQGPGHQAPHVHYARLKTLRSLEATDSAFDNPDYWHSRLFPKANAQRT
Chain of PI3K p85 (P27986 whole entry): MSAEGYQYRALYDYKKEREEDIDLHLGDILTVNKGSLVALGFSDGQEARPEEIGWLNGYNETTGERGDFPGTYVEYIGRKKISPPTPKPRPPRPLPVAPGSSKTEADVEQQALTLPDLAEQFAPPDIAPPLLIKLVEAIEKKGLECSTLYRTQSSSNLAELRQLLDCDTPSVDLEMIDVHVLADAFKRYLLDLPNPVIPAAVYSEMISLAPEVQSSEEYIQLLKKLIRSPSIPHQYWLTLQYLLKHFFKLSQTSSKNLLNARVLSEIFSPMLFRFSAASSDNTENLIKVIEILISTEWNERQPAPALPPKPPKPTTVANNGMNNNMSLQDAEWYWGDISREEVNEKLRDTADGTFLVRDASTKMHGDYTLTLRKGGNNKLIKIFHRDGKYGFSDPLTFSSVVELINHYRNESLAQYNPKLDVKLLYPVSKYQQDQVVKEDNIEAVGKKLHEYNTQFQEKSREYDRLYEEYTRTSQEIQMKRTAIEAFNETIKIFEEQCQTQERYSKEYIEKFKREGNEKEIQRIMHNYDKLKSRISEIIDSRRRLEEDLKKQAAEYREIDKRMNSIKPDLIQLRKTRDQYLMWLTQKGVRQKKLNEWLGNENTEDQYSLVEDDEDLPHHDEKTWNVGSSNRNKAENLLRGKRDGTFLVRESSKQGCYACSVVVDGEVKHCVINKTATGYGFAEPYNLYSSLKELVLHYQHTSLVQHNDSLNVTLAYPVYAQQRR

Work on “PI3K p85 (from UniProt P27986 1-724) (natural protein)” yielded a fold increase in HER3:PI3K p85 binding, 24h cetuximab against control treatment of 5 fold.

From publication PMC5354831
